Assay results taken from PMC10298926, “Biophysical Characterization of the Binding Mechanism between the MATH Domain of SPOP and Its Physiological Partners” (International Journal of Molecular Sciences, 2023).
Where no end group is shown, it is not given here. The star is where a group is joined. Dansyl = CN(C)c1cccc2c(S(=O)(=O)*)cccc12

Columns and labels:
[1] = substrate: SPOP MATH D131A (UniProt O43791); experiment: stopped-flow fluorescence binding kinetics; pseudo-first-order; 2 µM MATH mixed with dansylated peptide, 2 to 10 µM Puc and MacroH2A, 2 to 40 µM PTEN; excitation 280 nm; 298 K; kobs against peptide concentration fitted to a line, kon from the slope
[2] = substrate: SPOP MATH R71A (UniProt O43791); experiment: as above
[3] = substrate: SPOP MATH K130A (UniProt O43791); experiment: as above
[4] = substrate: SPOP MATH Y88A (UniProt O43791); experiment: as above
[5] = substrate: SPOP MATH Y124A (UniProt O43791); experiment: as above
[6] = substrate: SPOP MATH F134A (UniProt O43791); experiment: as above
[7] = substrate: SPOP MATH K135A (UniProt O43791); experiment: as above
[8] = biological target: engineered MATH domain of SPOP (Speckle-type POZ protein), residues 1-182, cysteine residues substituted to serine (UniProt O43791); experiment: stopped-flow fluorescence displacement; preincubated complex of MATH domain and dansylated peptide (both 8 µM) mixed with an excess of nondansylated peptide (50 µM); 298 K; same buffer as the binding experiments; single exponential decay gives koff
[9] = biological target: engineered MATH domain of SPOP (Speckle-type POZ protein), residues 1-182, cysteine residues substituted to serine (UniProt O43791); experiment: other fluorescence titration; equilibrium; FRET from the tryptophans of SPOP MATH (excited at 280 nm, emission 300-400 nm) to the dansyl of the peptide; MATH at constant concentration (2 µM in the methods, 1 µM in the results), dansylated peptide 0 to 40 µM; 298 K; hyperbolic fit
[10] = biological target: engineered MATH domain of SPOP (Speckle-type POZ protein), residues 1-182, cysteine residues substituted to serine (UniProt O43791); experiment: stopped-flow fluorescence binding kinetics; pseudo-first-order; 2 µM MATH mixed with dansylated peptide, 2 to 10 µM Puc and MacroH2A, 2 to 40 µM PTEN; excitation 280 nm; 298 K; kobs against peptide concentration fitted to a line, kon from the slope
[11] = biological target: engineered MATH domain of SPOP (Speckle-type POZ protein), residues 1-182, cysteine residues substituted to serine (UniProt O43791); experiment: stopped-flow fluorescence binding kinetics + other: stopped-flow fluorescence displacement; KD calculated by combining kon of the pseudo-first-order plots with koff of the displacement experiments; 298 K
[12] = substrate: SPOP MATH D131A (UniProt O43791); experiment: stopped-flow fluorescence displacement; preincubated complex of MATH domain and dansylated peptide (both 8 µM) mixed with an excess of nondansylated peptide (50 µM); 298 K; same buffer as the binding experiments; single exponential decay gives koff
[13] = substrate: SPOP MATH R71A (UniProt O43791); experiment: as above
[14] = substrate: SPOP MATH K130A (UniProt O43791); experiment: as above
[15] = substrate: SPOP MATH Y88A (UniProt O43791); experiment: as above
[16] = substrate: SPOP MATH Y124A (UniProt O43791); experiment: as above
[17] = substrate: SPOP MATH F134A (UniProt O43791); experiment: as above
[18] = substrate: SPOP MATH K135A (UniProt O43791); experiment: as above

Q: How did the kon [1] turn out when Dansyl-DEVTSTTSSS [dansylated peptide mimicking Puc (region 96-105)] was run?
A: 1.82e+07 M⁻¹ s⁻¹

Q: And the kon [2]?
A: 8.8e+06 M⁻¹ s⁻¹

Q: And the kon [3]?
A: 1.3e+07 M⁻¹ s⁻¹

Q: What about the kon [4] of the same binder?
A: 1.44e+07 M⁻¹ s⁻¹

Q: What about the kon [5] of the same binder?
A: 6.71e+06 M⁻¹ s⁻¹

Q: And the kon [6]?
A: 9.4e+06 M⁻¹ s⁻¹

Q: What about the kon [7] of the same binder?
A: 6.3e+06 M⁻¹ s⁻¹

Q: And the koff [8]?
A: 26.1 s⁻¹

Q: What about the Kd [9] of the same binder?
A: 1400 nM

Q: And the kon [10]?
A: 1.9e+07 M⁻¹ s⁻¹

Q: And the Kd [11]?
A: 1400 nM

Q: What about the koff [12] of the same binder?
A: 241 s⁻¹

Q: What about the koff [13] of the same binder?
A: 34 s⁻¹

Q: And the koff [14]?
A: 123 s⁻¹

Q: What about the koff [15] of the same binder?
A: 302 s⁻¹

Q: What about the koff [16] of the same binder?
A: 78 s⁻¹

Q: And the koff [17]?
A: 15 s⁻¹

Q: What about the koff [18] of the same binder?
A: 45.2 s⁻¹
